Legend:
FANCD2 WT;FANCI WT [1] = molecular target: T1, FANCD2 WT;FANCI WT (Gallus gallus;Gallus gallus, UniProt Q68Y81;B0I564 1-1439;1-1338, |); test: EMSA; unlabelled D2-I; EMSA: 50 mM HEPES pH 8.0, 75 mM NaCl, 1 mM TCEP, 20 nM DNA, 20-22 C; switchSENSE: 20 mM HEPES pH 8.0, 75 mM NaCl, 1 mM TCEP, 25 C; cryo-EM and single-molecule:; conditions: protein: recombinant;recombinant; copies: 1;1; label: 3' FAM on P1; blunt
[2] = molecular target: FANCD2-ybbR-Cy3;FANCI-ybbR-Cy5 (Gallus gallus;Gallus gallus, UniProt Q68Y81;B0I564 1-1439;1-1338, |); test: EMSA; double-labelled D2-I, affinity comparable to unlabelled; EMSA: 50 mM HEPES pH 8.0, 75 mM NaCl, 1 mM TCEP, 20 nM DNA, 20-22 C; switchSENSE: 20 mM HEPES pH 8.0, 75 mM NaCl, 1 mM TCEP, 25 C; cryo-EM and single-molecule:; conditions: protein: recombinant;recombinant; copies: 1;1; label: 3' FAM on P1; blunt
Sequence of FANCD2-ybbR-Cy3;FANCI-ybbR-Cy5 (Q68Y81 whole entry, chain 1 of 2): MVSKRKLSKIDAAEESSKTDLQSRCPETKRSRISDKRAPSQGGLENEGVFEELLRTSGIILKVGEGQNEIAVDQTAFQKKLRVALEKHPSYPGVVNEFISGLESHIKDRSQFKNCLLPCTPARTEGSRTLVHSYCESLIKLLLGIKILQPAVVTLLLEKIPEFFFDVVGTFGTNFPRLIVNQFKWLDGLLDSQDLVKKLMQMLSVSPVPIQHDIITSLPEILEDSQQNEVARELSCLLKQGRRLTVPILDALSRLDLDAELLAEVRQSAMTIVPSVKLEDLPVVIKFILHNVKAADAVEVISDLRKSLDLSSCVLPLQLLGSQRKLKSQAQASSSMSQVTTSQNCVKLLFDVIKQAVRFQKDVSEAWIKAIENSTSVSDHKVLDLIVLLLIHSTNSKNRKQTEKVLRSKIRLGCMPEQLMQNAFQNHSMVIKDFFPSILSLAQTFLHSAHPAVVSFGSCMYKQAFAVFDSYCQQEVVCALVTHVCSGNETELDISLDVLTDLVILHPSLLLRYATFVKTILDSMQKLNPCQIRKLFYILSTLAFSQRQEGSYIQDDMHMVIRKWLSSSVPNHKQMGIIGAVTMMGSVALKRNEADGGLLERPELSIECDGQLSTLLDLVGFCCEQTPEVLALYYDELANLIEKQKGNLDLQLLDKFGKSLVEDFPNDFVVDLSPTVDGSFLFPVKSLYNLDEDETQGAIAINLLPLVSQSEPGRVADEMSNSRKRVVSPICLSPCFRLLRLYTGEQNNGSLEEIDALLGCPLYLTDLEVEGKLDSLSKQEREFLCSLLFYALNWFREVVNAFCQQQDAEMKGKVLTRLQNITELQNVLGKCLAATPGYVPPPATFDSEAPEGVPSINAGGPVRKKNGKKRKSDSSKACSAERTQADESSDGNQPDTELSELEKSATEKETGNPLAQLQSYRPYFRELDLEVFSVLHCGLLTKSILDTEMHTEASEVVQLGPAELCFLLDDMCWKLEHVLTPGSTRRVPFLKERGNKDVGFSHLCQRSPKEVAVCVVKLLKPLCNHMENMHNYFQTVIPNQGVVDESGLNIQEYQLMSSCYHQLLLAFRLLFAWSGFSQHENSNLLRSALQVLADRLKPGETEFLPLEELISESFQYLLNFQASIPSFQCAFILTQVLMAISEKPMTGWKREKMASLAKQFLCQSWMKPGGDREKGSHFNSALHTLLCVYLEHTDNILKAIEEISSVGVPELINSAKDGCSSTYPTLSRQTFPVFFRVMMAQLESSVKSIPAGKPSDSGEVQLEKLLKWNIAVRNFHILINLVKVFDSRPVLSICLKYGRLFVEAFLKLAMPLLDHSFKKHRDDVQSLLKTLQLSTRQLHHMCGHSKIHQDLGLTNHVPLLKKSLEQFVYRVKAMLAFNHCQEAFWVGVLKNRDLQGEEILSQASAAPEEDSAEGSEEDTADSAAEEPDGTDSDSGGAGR
Sequence of FANCD2-ybbR-Cy3;FANCI-ybbR-Cy5 (B0I564 whole entry, chain 2 of 2): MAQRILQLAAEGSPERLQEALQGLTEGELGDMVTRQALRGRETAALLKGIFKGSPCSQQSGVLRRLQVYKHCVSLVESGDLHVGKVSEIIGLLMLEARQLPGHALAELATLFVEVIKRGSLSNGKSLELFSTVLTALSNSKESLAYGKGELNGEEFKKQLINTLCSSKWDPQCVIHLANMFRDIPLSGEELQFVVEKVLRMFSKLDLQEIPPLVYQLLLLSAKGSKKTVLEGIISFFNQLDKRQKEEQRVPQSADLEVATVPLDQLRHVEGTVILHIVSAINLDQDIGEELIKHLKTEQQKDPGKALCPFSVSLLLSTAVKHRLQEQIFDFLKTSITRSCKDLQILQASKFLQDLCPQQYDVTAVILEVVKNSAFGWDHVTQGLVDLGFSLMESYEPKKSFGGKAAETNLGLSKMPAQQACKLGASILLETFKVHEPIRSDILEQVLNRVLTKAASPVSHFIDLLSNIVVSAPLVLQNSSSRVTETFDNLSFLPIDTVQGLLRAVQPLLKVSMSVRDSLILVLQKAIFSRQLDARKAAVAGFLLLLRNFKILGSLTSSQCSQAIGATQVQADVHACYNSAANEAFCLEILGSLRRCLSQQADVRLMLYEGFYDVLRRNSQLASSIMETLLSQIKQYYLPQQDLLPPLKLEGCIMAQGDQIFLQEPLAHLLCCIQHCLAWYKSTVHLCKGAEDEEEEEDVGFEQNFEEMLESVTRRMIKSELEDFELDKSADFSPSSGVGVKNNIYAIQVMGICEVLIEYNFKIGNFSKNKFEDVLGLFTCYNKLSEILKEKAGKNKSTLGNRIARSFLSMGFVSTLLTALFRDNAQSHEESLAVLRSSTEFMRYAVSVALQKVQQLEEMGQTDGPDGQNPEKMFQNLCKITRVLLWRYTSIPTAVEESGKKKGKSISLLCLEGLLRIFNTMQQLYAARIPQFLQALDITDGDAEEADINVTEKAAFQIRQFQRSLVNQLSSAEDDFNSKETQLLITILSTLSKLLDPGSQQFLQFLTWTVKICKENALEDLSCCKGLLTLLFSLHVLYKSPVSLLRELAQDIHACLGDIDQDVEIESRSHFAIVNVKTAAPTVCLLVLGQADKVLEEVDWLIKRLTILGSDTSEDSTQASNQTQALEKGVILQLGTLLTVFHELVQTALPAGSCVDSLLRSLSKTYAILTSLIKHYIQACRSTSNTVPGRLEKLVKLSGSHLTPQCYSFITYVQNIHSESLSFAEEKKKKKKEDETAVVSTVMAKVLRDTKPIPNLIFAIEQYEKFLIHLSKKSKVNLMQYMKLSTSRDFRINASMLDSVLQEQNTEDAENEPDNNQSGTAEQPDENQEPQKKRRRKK

FANCD2 WT;FANCI WT [3] = molecular target: T1, FANCD2 WT;FANCI WT; test: cryo-EM; stalled state; 24 bp duplex modelled; EMSA: 50 mM HEPES pH 8.0, 75 mM NaCl, 1 mM TCEP, 20 nM DNA, 20-22 C; switchSENSE: 20 mM HEPES pH 8.0, 75 mM NaCl, 1 mM TCEP, 25 C; cryo-EM and single-molecule:; conditions: protein: recombinant;recombinant; copies: 1;1; 29 bp duplex; strand 1 has 5' ssDNA 30 nt and 3' ssDNA 40 nt

T1 sequence (Q68Y81 whole entry, chain 1 of 2): as the sequence (Q68Y81 whole entry, chain 1 of 2) above
T1 sequence (B0I564 whole entry, chain 2 of 2): as the sequence (B0I564 whole entry, chain 2 of 2) above

Binder	binding result (FANCD2 WT;FANCI WT [1])	binding result [2]	binding result (FANCD2 WT;FANCI WT [3])
44 bp dsDNA P1/P7 (FAM) (dsDNA) DNA 1: ATCGATGTCTCTAGACAGCTGCTCAGGATTGATCTGTAATGGCC DNA 2: GGCCATTACAGATCAATCCTGAGCAGCTGTCTAGAGACATCGAT	binds	binds	–
ss-dsDNA J1/J2 (mixed) DNA 1: TTTTTTTTTTTTTTTTTTTTTTTTTTTTTTATCGATGTCTCTAGACAGCTGCTCAGGATTGATCTGTAATTTTTTTTTTTTTTTTTTTTTTTTTTTTTT DNA 2: ATCCTGAGCAGCTGTCTAGAGACATCGAT	–	–	binds
